Reference: patent US12723255B2, “Herbicide tolerance genes and methods of use thereof” (priority 2014, dated 2026)
Numbering of substitutions follows the chain as printed. Where two headings read alike, the source gives them in different places.

Key:
[1] = high-throughput enzyme assay with crude bacterial extract; format: biochemical; settings: relative to wild-type RdpA; for Average quizalofop-P activity: average of replicates
Procedure: The high-throughput bacterial protein expression was achieved by synthesizing a recombinant DNA molecule encoding each engineered protein and cloning this into a bacterial expression vector with a C-terminal histidine tag (His-tag) operably linked to the recombinant DNA molecule. The vectors were used to transform Escherichia coli (E. coli), and bacterial expression of the engineered proteins was induced. Overnight E. coli cultures were grown in 96-well plates and the cultures were centrifuged to pellet the bacteria. The bacterial pellets were lysed by adding 100 ul lysis master mix (10 ml of Bacteria Protein Extraction Reagent (B-PER®) II (Pierce Biotechnology, Rockford, IL; cat. no. 78260); 10 ul Lysozyme (10 ug/ml final; Lysozyme American Bioanalytical, Natick, MA; cat. no. AB011780-00005); and 40 ul Benzonase® Nuclease (100 Units/ml final, Novagen, Darmstadt, Germany; cat no 71206-3)) to each well. The plates were vortexed then incubated for 30 minutes at 4° C. 400 ul of MOPS buffer (pH 6.57) was added to cach well and the debris pelleted by centrifugation. The lysate supernatant was carefully removed and used as the crude bacterial extract for subsequent enzymatic analysis.
(§1) The high-throughput herbicide degradation enzyme assay was designed to assay the enzymatic activity of the engineered proteins towards various herbicides using crude bacterial extract. The engineered protein's oxygenase activity (that is, its enzymatic activity) was measured by an end point colorimetric assay utilizing detection of phenol products through measurement of absorbance at 510 nm from 4-aminoantipyrine and potassium ferricyanide. This assay was based on the assay described in Fukomori and Hausinger, Journal of Biological Chemistry (1993) 268(32):24311-24317. Enzyme reactions were assayed in 96-well plates in a total volume of 150ul that contained: 20 mM MOPS pH 6.75, 50-200 uM NH4FeSO4, 50-200 uM sodium ascorbate, 1 mM alpha-ketoglutarate (aKG), 10 ul of E. coli cell lysate containing expressed engineered protein, and substrate (either an AOPP herbicide or phenoxy acid herbicide). […] Absorbance measurements were made on a standard laboratory spectrometer. Assays were scaled as needed to enhance throughput. Standard curves were generated using purified protein or product standards.
Using this high-throughput bacterial protein expression and enzyme assay system, activities of approximately 1200 engineered proteins were measured relative to the activity of a selected wild-type protein, RdpA. In a 96 well plate assay, there were 3 controls (crude bacterial extract without an engineered protein) and 3 positive controls (crude bacterial extract with wild-type protein). The absorbance of the wells was measured and the protein activity was calculated using the following formula:
[formula] where, Activityi is the activity of the sample, Absorbancei is the absorbance of the sample, AbsorbanceWT is the absorbance of the wells containing extract from E. coli expressing the wild-type enzyme, and AbsorbancepET is the absorbance of the wells containing extract from E. coli without an engineered protein. Activity for each unique engineered protein was measured in duplicate and was reported as an average of the two measurements.
Using the information learned from the first assays, protein engineering was then done as described previously to produce additional engineered proteins, which were tested as described in this Example 1. The results of the high-throughput enzyme assay with quizalofop-P as the substrate for five of these additional engineered proteins are provided in Table 2.

[2] = enzyme kinetic measurements with purified protein; format: biochemical; settings: for Km: 0-1280 uM substrate; for Vmax Fenoxaprop / Vmax Fluazifop / Vmax Haloxyfop / Vmax Quizalofop-P: relative values
Procedure: as §1
Further protein characterization, such as Km, Vmax, and crystal structure analysis, was performed using the five engineered proteins from Table 2. For this detailed analysis, purified protein was prepared as follows: 2 ml overnight cultures of E. coli expressing a transgene encoding a given MON-HT protein were used to inoculate 500 ml of broth and grown at 37° C. for 4 hours followed by culture at 15° C. for approximately 36 hours. Then 250 ml of the 500 ml bacterial culture was pelleted by centrifugation and resuspended in 25 ml of extraction buffer (20 mM Tris, pH 7.8, 300 mM NaCl, 5 mM beta-mercaptoethanol (BME), 20 mM imidazole (Fluka/Sigma-Aldrich, St. Louis, MO), 125 units/ml of benzonase and 10K units/ml of lysozyme (Novagen, Darmstadt, Germany). The cell slurry was passed through a cell disruptor once at 20000 psi and then this cell lysate was clarified by centrifugation at 35,000×g for 20 min at 4° C. The supernatant containing the soluble His-tagged proteins was used for protein purification. For this purification, the supernatant was applied to a 1 ml HisTrap™ FF column (Nickel Sepharose) (GE Healthcare, Piscataway, NJ) using an AKTaxpress™ system (GE Healthcare, Piscataway, NJ) following the standard manufacturer's protocol. The wash buffer consisted of: 20 mM Tris pH 7.8, 300 mM NaCl, 20 mM imidazole and 5 mM BME. The composition of elution buffer was the same as the wash buffer except with 500 mM imidazole. The eluate from the nickel column was desalted on a Quick Spin Protein Sephadex G-25 fine column (Roche Applied Science, Indianapolis, IN) following the manufacturer's protocol. The eluted protein was in buffer consisting of: 20 mM Tris pH 7.8, 50 mM NaCl and 5 mM BME. Protein extract purity was assessed by SDS-PAGE analysis. Protein concentration was determined by Bradford assay using Bio-Rad Protein Assay dye reagent (Biorad, Hercules, CA, cat no 500-0006).
Purified protein for the five engineered proteins was analyzed using the enzyme assay described in this Example 1, but with four different AOPP herbicides as substrates: quizalofop-P, haloxyfop, fenoxaprop, and fluazifop. Standard curves were generated using 2,4-dichlorophenol (2,4-DCP), which was used to produce a general phenol standard curve. The amount of phenol generated in the assay by the engineered proteins was calculated based on this standard curve. The controls were purified wild-type enzyme, no enzyme, and no substrate. Enzyme kinetic measurements of the five engineered proteins was done using 0, 20, 40, 80, 160, 320, 640, or 1280 uM of quizalofop-P, haloxyfop, fenoxaprop, or fluazifop herbicides.

[3] = tested on: transgenic soybean plants; experiment: R0 soybean 2,4-D spray test of 2,4-D optimized variants; format: in vivo; settings: for tolerance to 2,4-D treatment: 2× application rate, soy
Text: An additional five engineered proteins optimized for activity for 2,4-D were then selected for analysis in transgenic soybean. DNA constructs were produced for expressing MON-HT13 (SEQ ID NO:47), MON-HT14 (SEQ ID NO:48), MON-HT15 (SEQ ID NO:49), MON-HT17 (SEQ ID NO:51), and MON-HT18 (SEQ ID NO:52) with codon usage optimized for dicot expression. The operably linked expression elements (promoter, leader, intron, CTP, and 3′UTR) were identical in all of the constructs. Leaf samples were taken from R0 plantlets and single copy plants were identified using a PCR-based assay. When the single-copy R0 plants had approximately two to three trifoliate leaves, they were treated with either 1.5 lb ae/acre (2×) or 3.0 lb ae/acre (4×) of 2,4-D. Seven days after herbicide application, the plants were scored for herbicide injury based on the percent area of the plant showing injury, as indicated above.

[4] = 2,4-D rate 2X (1.5 lb ae/acre), single copy R0 soy, seven days after application

B1: MON-HT52: engineered oxygenase protein, amino acid sequence SEQ ID NO:4 (protein)
chain: MHAALSPLSQRFERIAVQPLTGVLGAEITGVDLREPLDDSTWNEILDAFHTYQVIYFPGQAITNEQQIAFSRRFGPVDPVPLLKSIEGYPEVQMIRREANESGRVIGDDWHTDSTFLDAPPAAVVMRAIDVPEHGGDTGFLSMYTAYDALSDGLKKLISGLNVVHSATRVFGSLYQAQNRRFSNTSVKVMDVDAGDRETVHPLVVTHPGSGRKGLYVNQVYCQRIEGMSEKESEPLLSFLFAHATKPEFTCRVRWKKDQVLVWDNLCTMHYAINDYHGQTRILHRTTVGGVRPAR
**Q.** With B1 as the molecule, how does the “Replicate 1 quizalofop-P activity” value [1] read?
**A.** 92.17

**Q.** What about the “Replicate 2 quizalofop-P activity” value [1] of the same molecule?
**A.** 54.46

**Q.** What about the “Replicate 3 quizalofop-P activity” value [1] of the same molecule?
**A.** 89.75

**Q.** And the “Average quizalofop-P activity” value [1]?
**A.** 78.79

**Q.** And the Km ([2]; read-out: Km Fenoxaprop)?
**A.** 490 µM

**Q.** And the Km ([2]; read-out: Km Fluazifop)?
**A.** 14 µM

**Q.** What about the Km ([2]; read-out: Km Haloxyfop) of the same molecule?
**A.** 280 µM

**Q.** What about the Km ([2]; read-out: Km Quizalofop-P) of the same molecule?
**A.** 420 µM

**Q.** And the “Vmax Fenoxaprop” value [2]?
**A.** 420

**Q.** What about the “Vmax Fluazifop” value [2] of the same molecule?
**A.** 43

**Q.** What about the “Vmax Haloxyfop” value [2] of the same molecule?
**A.** 45

**Q.** What about the “Vmax Quizalofop-P” value [2] of the same molecule?
**A.** 39

B2: MON-HT53: engineered oxygenase protein, amino acid sequence SEQ ID NO:7 (protein)
chain: B1 chain with D38S, Q67H, T112S
**Q.** With B2 as the molecule, how does the “Replicate 1 quizalofop-P activity” value [1] read?
**A.** 105.34

**Q.** And the “Replicate 2 quizalofop-P activity” value [1]?
**A.** 105.31

**Q.** What about the “Replicate 3 quizalofop-P activity” value [1] of the same molecule?
**A.** 106.13

**Q.** And the “Average quizalofop-P activity” value [1]?
**A.** 105.60

**Q.** And the Km ([2]; read-out: Km Fenoxaprop)?
**A.** 1100 µM

**Q.** And the Km ([2]; read-out: Km Fluazifop)?
**A.** 1 µM

**Q.** What about the Km ([2]; read-out: Km Haloxyfop) of the same molecule?
**A.** 290 µM

**Q.** And the Km ([2]; read-out: Km Quizalofop-P)?
**A.** 690 µM

**Q.** What about the “Vmax Fenoxaprop” value [2] of the same molecule?
**A.** 640

**Q.** What about the “Vmax Fluazifop” value [2] of the same molecule?
**A.** 40

**Q.** And the “Vmax Haloxyfop” value [2]?
**A.** 64

**Q.** And the “Vmax Quizalofop-P” value [2]?
**A.** 95

B3: MON-HT54: engineered oxygenase protein, amino acid sequence SEQ ID NO:9 (protein)
chain: B1 chain with Q67H, I106L, D193A, A194D, L261V
**Q.** Which “Replicate 1 quizalofop-P activity” value [1] does the source give for B3 here?
**A.** 131.85

**Q.** And the “Replicate 2 quizalofop-P activity” value [1]?
**A.** 149.77

**Q.** And the “Replicate 3 quizalofop-P activity” value [1]?
**A.** 130.56

**Q.** What about the “Average quizalofop-P activity” value [1] of the same molecule?
**A.** 137.39

**Q.** What about the Km ([2]; read-out: Km Fenoxaprop) of the same molecule?
**A.** 2100 µM

**Q.** What about the Km ([2]; read-out: Km Haloxyfop) of the same molecule?
**A.** 380 µM

**Q.** What about the Km ([2]; read-out: Km Quizalofop-P) of the same molecule?
**A.** 560 µM

**Q.** And the “Vmax Fenoxaprop” value [2]?
**A.** 630

**Q.** And the “Vmax Haloxyfop” value [2]?
**A.** 40

**Q.** What about the “Vmax Quizalofop-P” value [2] of the same molecule?
**A.** 32

B4: MON-HT14: engineered oxygenase protein, amino acid sequence SEQ ID NO:48 (protein)
chain: MHAALTPLTNKYRHIDVQPLTGVLGAEITGVDLREPLDDSTWNEILDAFHTYQVIYFPGQAITNEQHIAFSRRFGPVDPVPILKSIEGYPEVQMIRREANESSRYIGDDWHADSTFLDAPPAAVVMRAIEVPEYGGDTGFLSMYSAWETLSPTMQATIEGLNVVHSATKVFGSLYQATNWRFSGTSVKVMDVDAGDRETVHPLVVTHPVTGRRALYCNQVYCQKIQGMTDAESKSLLQFLYEHATQFDFTCRVRWKKDQVLVWDNLCTMHRAVPDYAGKFRYLTRTTVAGDKPSR
**Q.** With B4 as the molecule, how does the “Events with <20% injury” value [3, 4] read?
**A.** 9

**Q.** What about the “tolerance to 2,4-D treatment” value [3] of the same molecule?
**A.** excellent tolerance

B5: MON-HT18: engineered oxygenase protein, amino acid sequence SEQ ID NO:52 (protein)
chain: B4 chain with G184N
**Q.** What does the source list for B5?
**A.** Events with 20-50% injury [3, 4]: 1; Events with <20% injury [3, 4]: 11; tolerance to 2,4-D treatment [3]: excellent tolerance
